Results as given in paper PMC10516938, “Conformational dynamics of cohesin/Scc2 loading complex are regulated by Smc3 acetylation and ATP binding” (Nature Communications, 2023).

Target: T1, Smc3^QQ R1008I K1004C (S. cerevisiae, UniProt P47037 1-1230, K112Q | K113Q | K1004C | R1008I)
T1 construct: Smc3, S. cerevisiae; also called smc3-QQ K1004C with R1008I; source: S. cerevisiae W303, late G1 arrested cells, whole-cell extract
T1 sequence (looked up): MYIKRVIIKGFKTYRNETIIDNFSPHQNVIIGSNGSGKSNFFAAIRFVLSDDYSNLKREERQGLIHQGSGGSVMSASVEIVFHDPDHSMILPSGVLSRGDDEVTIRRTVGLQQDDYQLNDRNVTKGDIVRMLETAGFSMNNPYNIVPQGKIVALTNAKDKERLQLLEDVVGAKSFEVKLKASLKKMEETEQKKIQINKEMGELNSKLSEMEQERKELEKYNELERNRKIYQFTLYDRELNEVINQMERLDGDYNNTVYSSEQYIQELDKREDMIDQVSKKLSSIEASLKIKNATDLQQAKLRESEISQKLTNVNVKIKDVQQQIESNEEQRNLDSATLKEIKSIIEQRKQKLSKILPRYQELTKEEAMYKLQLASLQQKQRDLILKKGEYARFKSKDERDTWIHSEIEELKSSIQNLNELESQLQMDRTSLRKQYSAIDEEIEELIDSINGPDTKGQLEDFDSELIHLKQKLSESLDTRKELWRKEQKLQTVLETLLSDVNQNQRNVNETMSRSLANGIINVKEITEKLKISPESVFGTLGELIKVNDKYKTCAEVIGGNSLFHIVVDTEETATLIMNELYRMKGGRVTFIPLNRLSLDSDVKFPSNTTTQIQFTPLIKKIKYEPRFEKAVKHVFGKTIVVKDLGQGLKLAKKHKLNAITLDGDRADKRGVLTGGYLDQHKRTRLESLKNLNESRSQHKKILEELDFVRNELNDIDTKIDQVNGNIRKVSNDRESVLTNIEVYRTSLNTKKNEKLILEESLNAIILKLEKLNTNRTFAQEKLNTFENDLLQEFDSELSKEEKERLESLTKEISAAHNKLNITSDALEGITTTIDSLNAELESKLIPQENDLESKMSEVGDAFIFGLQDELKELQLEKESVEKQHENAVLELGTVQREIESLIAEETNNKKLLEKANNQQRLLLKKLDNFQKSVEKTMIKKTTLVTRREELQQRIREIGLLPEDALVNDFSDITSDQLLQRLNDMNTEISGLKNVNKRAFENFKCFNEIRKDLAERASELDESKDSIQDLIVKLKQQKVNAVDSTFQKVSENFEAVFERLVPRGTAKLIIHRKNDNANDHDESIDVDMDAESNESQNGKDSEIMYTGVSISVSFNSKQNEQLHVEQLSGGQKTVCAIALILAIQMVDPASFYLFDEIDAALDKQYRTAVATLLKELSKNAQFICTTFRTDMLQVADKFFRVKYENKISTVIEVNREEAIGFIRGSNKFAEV
Experiment: cross-linking; in vivo BMOE cross-link of cysteine pairs in yeast cells arrested in late G1 by non-degradable Sic1(9m); Scc1-PK immunoprecipitated, western blot, band intensities quantified
Conditions: partners not purified

crosslink relative to wild type: ~70%
B1: Scc2 D369C (natural protein, S. cerevisiae, UniProt Q04002 1-1493, looked up)
chain: MSYPGKDKNIPGRIIEALEDLPLSYLVPKDGLAALVNAPMRVSLPFDKTIFTSADDGRDVNINVLGTANSTTSSIKNEAEKERLVFKRPSNFTSSANSVDYVPTNFLEGLSPLAQSVLSTHKGLNDSINIEKKSEIVSRPEAKHKLESVTSNAGNLSFNDNSSNKKTKTSTGVTMTQANLAEQYLNDLKNILDIVGFDQNSAEIGNIEYWLQLPNKKFVLTTNCLTKLQMTIKNITDNPQLSNSIEITWLLRLLDVMVCNIKFSKSSLKMGLDDSMLRYIALLSTIVLFNIFLLGKNDSNLHRESYIMEPVNFLSDLIESLKILTIEYGSLKIEFDTFQEALELLPKYIRNGPFLDDNVTAKLVYIFSCLLMNNDIEATTNIQFQSFWDNVKRISSDILVSLFGSFDQQRGFIIEELLSHIEKLPTKRIQKKLRKVGNQNIYITDFTFTLMSMLENINCYSFCNQMKDIAPENIDLLKNEYKKQEEFLFNIVEHINDTILERFFKNPSALRYVIDNFVQDLLLLISSPQWPVTEKILSSLLKRLLSVYSPSMQVSANIETICLQLIGNIGSTIFDIKCSTRDHEDNNLIKMINYPETLPHFFKSFEECIAYNETIKCRRSATRFLWNLRLGTILILEEYTKDAKEQIITVDNELKKILEQIKDGGLGPELENREADFSTIKLDYFSILHAFELLNLYDPYLKLILSLLAKDKIKLRSTAIKCLSMLASKDKVILSNPMVKETIHRRLNDSSASVKDAILDLVSINSSYFEFYQQINNNYNDDSIMVRKHVLRINEKMYDETNDIVTKVYVIARILMKIEDEEDNIIDMARLILLNRWILKVHEVLDQPEKLKEISSSVLLVMSRVAIMNEKCSQLFDLFLNFYLLNKEAHSKEAYDKITHVLTILTDFLVQKIVELNSDDTNEKNSIVDKQNFLNLLAKFADSTVSFLTKDHITALYPYMVSDEKSDFHYYILQVFRCTFEKLANFKQKFLYDLETTLLSRLPKMNVREIDEAMPLIWSVATHRHDTARVAKACSSCLSHLHPYINKANNEEAAIVVDGKLQRLIYLSTGFARFCFPKPSNDKIAFLQEGETLYEHITKCLLVLSKDKITHVIRRVAVKNLTKLCGNHPKLFNSRHVLHLLDKEFQSDQLDIKLVILESLYDLFLLEERKSVRNTGVNSTLSSNSILKKKLLKTNRVEFANDGVCSALATRFLDNILQLCLLRDLKNSLVAIRLLKLILKFGYTNPSHSIPTVIALFASTSQYIRHVAYELLEDLFEKYETLVFSSLSRGVTKAIHYSIHTDEKYYYKHDHFLSLLEKLCGTGKKNGPKFFKVLKRIMQSYLDDITDLTSTNSSVQKSIFVLCTNISNITFVSQYDLVSLLKTIDLTTDRLKEVIMDEIGDNVSSLSVSEEKLSGIILIQLSLQDLGTYLLHLYGLRDDVLLLDIVEESELKNKQLPAKKPDISKFSAQLENIEQYSSNGKLLTYFRKHVKDT
notes: Scc2, S. cerevisiae; source: S. cerevisiae W303, in vivo, whole-cell extract
